Experimental data taken from patent US7708999B2, “Remedies for arthritis” (Kyowa Hakko Kirin Co., Ltd., priority 2001, dated 2010).

Experiments:
[1] = biological target: T1, FGF-8 (Homo sapiens, UniProt P55075); test: Inhibition by antibody of FGF-8-promoted growth of human synovial cells; format: cell-based; conditions: FGF-8 500 ng/mL
T1 construct: purchased R & D
T1 sequence (P55075 23-215 isoform P55075-3 limits assumed): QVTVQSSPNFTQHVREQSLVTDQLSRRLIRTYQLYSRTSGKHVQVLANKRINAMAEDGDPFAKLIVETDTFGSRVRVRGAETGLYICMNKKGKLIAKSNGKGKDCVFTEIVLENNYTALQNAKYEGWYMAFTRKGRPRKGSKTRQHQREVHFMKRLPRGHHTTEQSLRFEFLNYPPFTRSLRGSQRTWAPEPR
Method: Rabbit synovial cells were collected by the method of Hamilton et al. (Hamilton J. A. and Slywka J., J. Immunol. 126, 851-855, 1981). The isolated synovial cells were suspended in RPMI 1640 medium comprising 10 vol % FBS (FBS-comprising RPMI 1640 medium is hereinafter referred to as FBS/RPMI 1640), and 10,000 cells was inoculated at each well of a 96-well culture plate. After 24 hours of the culturing, the culture medium of each well was removed, and 200 μL of 0.2 vol % FBS/RPMI 1640 (non-stimulated group) or 0.2 vol % FBS/RPMI 1640 comprising FGF-8 (1, 10 or 100 ng/mL) was added. […] The culturing was further performed for 24 hours, and the radioactivity of [^3H]thymidine incorporated in the cells was measured using a liquid scintillation counter (1205 Beta Plate, manufactured by Perkin Elmer Life Science Japan). Six experiments were performed for each condition, and the mean values and the standard error were calculated.
The same experiment as in Example 3 was performed using human synovial cells derived from the rheumatoid arthritis patient (procured from Toyobo). […] Six experiments were performed for each condition, and the mean values and the standard error were calculated.

[2] = test system: rat adjuvant arthritis model; test: Rat adjuvant arthritis model; format: in vivo
Method: The rat adjuvant arthritis model was performed in the following manner according to the method of Pearson et al. (Pearson CM. et al., Arthritis Rheum., 5, 654-658, 1962) using Lewis rats (female, 8 weeks old, Japan Charles River).
Mycobacterium butyricum (manufactured by Difco) was suspended in a liquid paraffin (manufactured by Wako Pure Chemical Industries, Ltd.) to a final concentration of 6 mg/mL, and sterilized with a autoclave. The resulting solution was intradermally injected into the rat right hind pad in an amount of 100 μL for sensitization. One group consisted of 8 to 10 rats. Anti-FGF-8 neutralizing antibody KM1334 was dissolved in saline to a final concentration of 2 mg/mL. The solution was intraperitoneally administered to a KM1334 administrated group once a day at a dose of 0.5 mL per 100 g of the body weight for each rat on the sensitization day of the rat adjuvant arthritis model and on days 3, 7, 10, 14 and 17 from the sensitization. To saline administrated group, only saline was intraperitoneally administered instead of the anti-FGF-8 neutralizing antibody KM1334 solution. Further, sodium diclofenac, an antiinflammatory agent, was dissolved in a 0.5 w/v % methyl cellulose solution to a final concentration of 0.3 mg/mL, and the solution was orally administered to a sodium diclofenac administrated group as a positive control once a day at a dose of 1 mL per 100 g of the body weight on days 4, 7 to 11 and 14 to 18 from the adjuvant sensitization day. 50 mg of methotrexate® for injection (manufactured by Wyeth Japan) as a metabolic antagonist was dissolved in a 0.5 w/v % methyl cellulose solution to a final concentration of 0.01 mg/mL, and the solution was administered to a methotrexate administrated group in the same manner as in the sodium diclofenac administrated group. Prednisolone (manufactured by Sigma-Aldrich), a steroidal agent, was suspended in a 0.5 w/v % methyl cellulose solution to a final concentration of 0.3 mg/mL, and the suspension was administered to a prednisolone administrated group in the same manner as in the sodium diclofenac administrated group. Further, a 0.5 w/v % methyl cellulose solution alone was orally administered to a solvent administrated group in the same manner. An untreated group was used, and it was not subjected to sensitization with Mycobacterium butyricum and administration of an agent. The volumes of the adjuvant-treated paw and the adjuvant-untreated paw were measured as time goes by using a device for measuring edemas of rat hind paw (TK-101, manufactured by Unicom).
Using urine collected for 24 hours at day 20 and day 21 after the sensitization, the amounts of glycosaminoglycan, deoxypyridinoline, hydroxyproline and creatinine in urine were measured. The amount of glycosaminoglycan in urine was measured by the DMMB method described in Example 1. The amount of hydroxyproline in urine was measured by the method of Ikeda et al. (Ikeda Shingo et al., Tokyo Eiken Nenpo, 36 277-282, 1985). That is, 0.8 mL of hydrochloric acid for amino acid analysis (manufactured by Kanto Kagaku) was added to 0.8 mL of urine to hydrolyze at 110° C. for 15 hours. To 0.5 mL of the hydrolyzed sample was added 2 mL of a 1.2 mol/L sodium hydroxide solution for neutralization. 1 mL of isopropanol was added to 0.5 mL of the neutralized sample, and 1 ml of an oxidant solution was added. The mixture was stirred well, and allowed to stand at room temperature for 5 minutes. […]

[3] = biological target: T1, FGF-8; test: Inhibition by antibody of FGF-8-promoted growth of rabbit synovial cells; format: cell-based; conditions: FGF-8 100 ng/mL, 0.1, 0.3, 1, 3 or 10 μg/ml tested
Method: Rabbit synovial cells were collected by the method of Hamilton et al. (Hamilton J. A. and Slywka J., J. Immunol. 126, 851-855, 1981). The isolated synovial cells were suspended in RPMI 1640 medium comprising 10 vol % FBS (FBS-comprising RPMI 1640 medium is hereinafter referred to as FBS/RPMI 1640), and 10,000 cells was inoculated at each well of a 96-well culture plate. After 24 hours of the culturing, the culture medium of each well was removed, and 200 μL of 0.2 vol % FBS/RPMI 1640 (non-stimulated group) or 0.2 vol % FBS/RPMI 1640 comprising FGF-8 (1, 10 or 100 ng/mL) was added. When the activity of the anti-FGF-8 neutralizing antibody was examined, 200 μL of 0.2 vol % FBS/RPMI 1640 comprising FGF-8 (100 ng/mL) (0 group) or 0.2 vol % FBS/RPMI 1640 comprising FGF-8 (100 ng/mL) and anti-FGF-8 neutralizing antibody KM1334 (0.1, 0.3, 1, 3 or 10 μg/ml) was added to each well. After 48 hours of the culturing, 9.25 kBq per well of [^3H]thymidine was added. The culturing was further performed for 24 hours, and the radioactivity of [^3H]thymidine incorporated in the cells was measured using a liquid scintillation counter (1205 Beta Plate, manufactured by Perkin Elmer Life Science Japan). Six experiments were performed for each condition, and the mean values and the standard error were calculated.

[4] = adjuvant-untreated paw, score 0 to 4, mean ± standard error
[5] = urine day 20 to 21, KM1334 intraperitoneally, vs saline group

antibody concentration from which the FGF-8-dependent incorporation of [3H]thymidine was significantly inhibited [1]: ≥ 1 µg/mL | antibody concentration from which the FGF-8-dependent incorporation of [3H]thymidine was significantly inhibited [3]: ≥ 0.3 µg/mL
B1: KM1334: anti-FGF-8 neutralizing monoclonal antibody produced by hybridoma KM1334 (FERM BP-5451), mouse IgG1 subclass (antibody, V domains shown)
VH: QVQLQQSGAEVARPGASVKLSCKASGYTFTDYYLNWVKQRSGQGLEWIGEIDPGSDSIYYNENLEGRATLTADKSSSTAYMQLNSLTSEDSAVYFCARYGYSRYDVRFVYWGQGTLVTVST
VL: DVLMTQTPLSLPVSLGDQASISCRSSQSLVHSNGRTYLEWYLQKPGQSPKVLIYKVSNRISGVPDRFSGSGSGTDFTLKISRVEAEDLGVYFCFQGSHVPYTFGGGTKLEIK
Bone destruction score ([2]; Table 1, soft X-ray of calcaneus, adjuvant-untreated paw, day 21, maximum 5, mean ± standard error): 3.2 ± 0.5 | Bone destruction score (% inhibition) ([2]; Table 1, vs saline group, not significant): 27% | Pathological score: Blood cell plasma leak to articular cavity [2, 4]: 1.6 ± 0.3 | Pathological score: Blood leak around joint [2, 4]: 2.0 ± 0.4 | inhibition of the increase in paw volume, adjuvant-untreated paw ([2]; day 21, 2 mg/mL, 0.5 mL per 100 g intraperitoneally, vs saline group): 69% | decrease of the increase in amount of hydroxyproline in urine ([2]; urine day 20 to 21, KM1334 intraperitoneally, not significant): 48% | inhibition of the increase in amount of deoxypyridinoline in urine (deoxypyridinoline/creatinine ratio) [2, 5]: 41% | inhibition of the increase in amount of glycosaminoglycan in urine (glycosaminoglycan/creatinine ratio) [2, 5]: 73% | Blood cell plasma leak to articular cavity (Percent inhibition) ([2]; vs saline group): 41% | Blood leak around joint (Percent inhibition) ([2]; vs saline group): 41%
